From US20240368250A1 (Ablynx, published 2024)
Residue numbers refer to the chain shown, from its start.

B1: TPP-66144 (Fc fusion)
chain 1: DVQLVESGGGVVQAGGSLSISCAASGGSLSNYVLGWFRQAPGKEREFVAAINWRGDITIGPPNVEGRFTISRDNAKNTGYLQMNSLAPDDTALYYCGAGTPLNPGAYIYDWSYDYWGRGTLVTVSSDKTHTCPPCPAPEAAGGPSVFLFPPKPKDTLMISRTPEVTCVVVDVSQEDPEVQFNWYVDGVEVHNAKTKPREEQFNSTYRVVSVLTVLHQDWLNGKEYKCKVSNKGLPSSIEKTISKAKGQPREPQVYTLPPCQEEMTKNQVSLWCLVKGFYPSDIAVEWESNGQPENNYKTTPPVLDSDGSFFLYSKLTVDKSRWQEGNVFSCSVMHEALHNHYTQKSLSLSLGGGGGSGGGSEVQLVESGGGVVQPGGSLRLSCAASGFTFRSFGMSWVRQAPGKGPEWVSSISGSGSDTLYADSVKGRFTISRDNSKNTLYLQMNSLRPEDTALYYCTIGGSLSRSSQGTLVTVSSA
chain 2: DVQLVESGGGVVQAGGSLSISCAASGGSLSNYVLGWFRQAPGKEREFVAAINWRGDITIGPPNVEGRFTISRDNAKNTGYLQMNSLAPDDTALYYCGAGTPLNPGAYIYDWSYDYWGRGTLVTVSSDKTHTCPPCPAPEAAGGPSVFLFPPKPKDTLMISRTPEVTCVVVDVSQEDPEVQFNWYVDGVEVHNAKTKPREEQFNSTYRVVSVLTVLHQDWLNGKEYKCKVSNKGLPSSIEKTISKAKGQPREPQVCTLPPSQEEMTKNQVSLSCAVKGFYPSDIAVEWESNGQPENNYKTTPPVLDSDGSFFLVSKLTVDKSRWQEGNVFSCSVMHEALHNRFTQKSLSLSLG
notes: IgG4 FALA Fc knob-in-hole, C-terminal ALB23002 via 9GS linker
B2: TPP-66148 (Fc fusion)
chain 1: DVQLVESGGGVVQAGGSLSISCAASGGSLSNYVLGWFRQAPGKEREFVAAINWRGDITIGPPNVEGRFTISRDNAKNTGYLQMNSLAPDDTALYYCGAGTPLNPGAYIYDWSYDYWGRGTLVTVSSDKTHTCPPCPAPEAAGGPSVFLFPPKPKDTLMISRTPEVTCVVVDVSQEDPEVQFNWYVDGVEVHNAKTKPREEQFNSTYRVVSVLTVLHQDWLNGKEYKCKVSNKGLPSSIEKTISKAKGQPREPQVYTLPPCQEEMTKNQVSLWCLVKGFYPSDIAVEWESNGQPENNYKTTPPVLDSDGSFFLYSKLTVDKSRWQEGNVFSCSVMHEALHNHYTQKSLSLSLGGGGGSGGGGSGGGGSGGGGSGGGGSGGGGSGGGGSEVQLVESGGGVVQPGGSLRLSCAASGLTFSSYAMGWFRQAPGKERERVVSISRGGGYTYYADSVKGRFTISRDNSKNTVYLQMNSLRPEDTALYYCAAARYWATGSEYEFDYWGQGTLVTVSSA
chain 2: B1 chain 2
notes: IgG4 FALA Fc knob-in-hole, C-terminal ALBX00002 via 35GS
B3: TPP-66151 (Fc fusion)
chain 1: B1 chain 2 with C255Y, S260C, S272W, A274L, V313Y, R341H, F342Y
chain 2: DVQLVESGGGVVQAGGSLSISCAASGGSLSNYVLGWFRQAPGKEREFVAAINWRGDITIGPPNVEGRFTISRDNAKNTGYLQMNSLAPDDTALYYCGAGTPLNPGAYIYDWSYDYWGRGTLVTVSSDKTHTCPPCPAPEAAGGPSVFLFPPKPKDTLMISRTPEVTCVVVDVSQEDPEVQFNWYVDGVEVHNAKTKPREEQFNSTYRVVSVLTVLHQDWLNGKEYKCKVSNKGLPSSIEKTISKAKGQPREPQVCTLPPSQEEMTKNQVSLSCAVKGFYPSDIAVEWESNGQPENNYKTTPPVLDSDGSFFLVSKLTVDKSRWQEGNVFSCSVMHEALHNRFTQKSLSLSLGGGGGSGGGGSGGGGSGGGGSGGGGSGGGGSGGGGSVKVKFWPRGEEKVVDTSKIAWVLRADKTVMFKYDDNGKKGYGVVLEKDAPKELLDMLARAEREK
B4: TPP-66149 (Fc fusion)
chain 1: DVQLVESGGGVVQAGGSLSISCAASGGSLSNYVLGWFRQAPGKEREFVAAINWRGDITIGPPNVEGRFTISRDNAKNTGYLQMNSLAPDDTALYYCGAGTPLNPGAYIYDWSYDYWGRGTLVTVSSDKTHTCPPCPAPEAAGGPSVFLFPPKPKDTLMISRTPEVTCVVVDVSQEDPEVQFNWYVDGVEVHNAKTKPREEQFNSTYRVVSVLTVLHQDWLNGKEYKCKVSNKGLPSSIEKTISKAKGQPREPQVYTLPPCQEEMTKNQVSLWCLVKGFYPSDIAVEWESNGQPENNYKTTPPVLDSDGSFFLYSKLTVDKSRWQEGNVFSCSVMHEALHNHYTQKSLSLSLGGGGGSGGGGSGGGGSGGGGSGGGGSGGGGSGGGGSEVQLVESGGGVVQPGDSLRLSCAASGGTFSTYVMGWFRQAPGKEREFVSAISQNSIHTYYANSVKGRFTISRDNSKNTVYLQLNSLRPEDTALYYCAASRFTSWYTADYEYDYWGQGTLVTVSSA
chain 2: B1 chain 2
notes: IgG4 FALA Fc knob-in-hole, C-terminal T023500029 via 35GS
B5: TPP-66147 (Fc fusion)
chain 1: DVQLVESGGGVVQAGGSLSISCAASGGSLSNYVLGWFRQAPGKEREFVAAINWRGDITIGPPNVEGRFTISRDNAKNTGYLQMNSLAPDDTALYYCGAGTPLNPGAYIYDWSYDYWGRGTLVTVSSDKTHTCPPCPAPEAAGGPSVFLFPPKPKDTLMISRTPEVTCVVVDVSQEDPEVQFNWYVDGVEVHNAKTKPREEQFNSTYRVVSVLTVLHQDWLNGKEYKCKVSNKGLPSSIEKTISKAKGQPREPQVYTLPPCQEEMTKNQVSLWCLVKGFYPSDIAVEWESNGQPENNYKTTPPVLDSDGSFFLYSKLTVDKSRWQEGNVFSCSVMHEALHNHYTQKSLSLSLGGGGGSGGGGSGGGGSGGGGSGGGGSGGGGSGGGGSEVQLVESGGGVVQPGGSLRLSCAASGFTFRSFGMSWVRQAPGKGPEWVSSISGSGSDTLYADSVKGRFTISRDNSKNTLYLQMNSLRPEDTALYYCTIGGSLSRSSQGTLVTVSSA
chain 2: B1 chain 2
notes: IgG4 FALA Fc knob-in-hole, C-terminal ALB23002 via 35GS
B6: TPP-66174 (Fc fusion)
chain 1: B5 chain 1 with M158Y, S160T, T162E
chain 2: B1 chain 2 with M158Y, S160T, T162E
notes: IgG4 FALA Fc (YTE) knob-in-hole, C-terminal ALB23002 via 35GS; also called ALB23002 ISVD-Fc(YTE) polypeptide

What follows are binders tested against Human serum albumin (HSA; Sigma-Aldrich Cat No. A8763) (human, UniProt P02768 25-609) (assay: SPR Biacore 8K+, HSA on C1 chip, pH 7.4, 1:1 fit).
Work on B1 yielded a Kd of 51.6 nM, a koff of 0.00124 s⁻¹ and a kon of 24000 M⁻¹ s⁻¹. For B2, the Kd was 5.1 nM, the koff was 0.000247 s⁻¹ and the kon was 48500 M⁻¹ s⁻¹. With B3 the Kd was 2.61 nM, the koff was 0.00031 s⁻¹ and the kon was 119000 M⁻¹ s⁻¹. With B4 the Kd was 8.2 nM, the koff was 0.000511 s⁻¹ and the kon was 62300 M⁻¹ s⁻¹. B5 was tested, and the Kd was 27.1 nM, the koff was 0.00119 s⁻¹ and the kon was 43800 M⁻¹ s⁻¹. For B6, the Kd was 21.5 nM, the koff was 0.00104 s⁻¹ and the kon was 48400 M⁻¹ s⁻¹.

What follows are binders tested against Mouse serum albumin (MSA; Albumin Bioscience Cat No. 2601) (mouse, UniProt P07724 25-608) (assay: SPR Biacore 8K+, MSA on C1 chip, pH 7.4, 1:1 fit (off-rate only)).
Work on B1 yielded a koff of 0.0842 s⁻¹. Binder B2 has a koff of 0.00187 s⁻¹. In the case of B3, the koff is reported as 0.00175 s⁻¹. B4 showed a koff of 0.000503 s⁻¹. With B5 the koff was 0.075 s⁻¹. B6 gave a koff of 0.0819 s⁻¹.

What follows are binders tested against T1, Human FcRn (biotinylated human FcRn) (human, UniProt P61769 21-119) (assay: SPR Biacore 8K+, biotinylated hFcRn on SA chip (~500-600 RU), pH 6.0, bivalent analyte fit;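 further: analytes were Fc proteins binding to biotinylated human FcRn captured on a Series S streptavidin sensor chip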).
T1 construct: Biotinylated human FcRn captured on a Series S Sensor Chip SA; also called human neonatal Fc receptor; hFcRn
In the case of B1, the KD2 is reported as 2.86 M, the ka2 is reported as 0.017 1/RUs and the kd2 is reported as 0.0485 s⁻¹. B2 was tested, and the KD2 was 2.14 M, the ka2 was 3.33e-05 1/RUs and the kd2 was 7.12e-05 s⁻¹. In the case of B3, the KD2 is reported as 2.08 M, the ka2 is reported as 6.98e-05 1/RUs and the kd2 is reported as 0.000145 s⁻¹. In the case of B4, the KD2 is reported as 3.39 M, the ka2 is reported as 4.37e-05 1/RUs and the kd2 is reported as 0.000148 s⁻¹. B5 was tested, and the KD2 was 3.17 M, the ka2 was 3.3e-05 1/RUs and the kd2 was 0.000105 s⁻¹. In the case of B6, the KD2 is reported as 2.04 M, the ka2 is reported as 55.8 1/RUs and the kd2 is reported as 114 s⁻¹.

These binders were tested against T1, Human FcRn (biotinylated human FcRn) (assay: SPR Biacore 8K+, biotinylated hFcRn on SA chip (~500-600 RU), pH 6.0, bivalent analyte fit (KD1)).
In the case of B1, the Kd is reported as 103 nM. For B2, the Kd was 1030 nM. In the case of B3, the Kd is reported as 1460 nM. B4 showed a Kd of 1200 nM. Work on B5 yielded a Kd of 1060 nM. With B6 the Kd was 121 nM.

What follows are binders tested against T1, Human FcRn (biotinylated human FcRn) (assay: SPR Biacore 8K+, biotinylated hFcRn on SA chip (~500-600 RU), pH 6.0, bivalent analyte fit (ka1)).
Work on B1 yielded a kon of 808000 M⁻¹ s⁻¹. With B2 the kon was 107000 M⁻¹ s⁻¹. B3 was tested, and the kon was 102000 M⁻¹ s⁻¹. B4 was tested, and the kon was 87000 M⁻¹ s⁻¹. B5 gave a kon of 101000 M⁻¹ s⁻¹. B6 gave a kon of 65000 M⁻¹ s⁻¹.

The binders below were run against T1, Human FcRn (biotinylated human FcRn) (assay: SPR Biacore 8K+, biotinylated hFcRn on SA chip (~500-600 RU), pH 6.0, bivalent analyte fit (kd1)).
B1 gave a koff of 0.0834 s⁻¹. B2 was tested, and the koff was 0.11 s⁻¹. In the case of B3, the koff is reported as 0.148 s⁻¹. B4 showed a koff of 0.104 s⁻¹. For B5, the koff was 0.107 s⁻¹. In the case of B6, the koff is reported as 0.00786 s⁻¹.
